Target: the molecule itself
Assay: crystal structure; MtrR dimer bound to a 21-mer operator oligoduplex (Semet-MtrR with rpoH, native MtrR with mtrCDE); hanging drop, 200 mM calcium acetate, 27% PEG 8000, 100 mM Tris pH 7.5

| Protein | binding result |
| --- | --- |
| Selenomethionine-derivatized MtrR (natural protein, selenomethionine-derivatized, MtrR, TetR-family transcriptional repressor of Neisseria gonorrhoeae, product of the mtrR gene; Same construct as m1 with methionines as selenomethionine; also called Semet-MtrR; not shown: His6, N-terminal, cleaved) MRKTKTEALKTKEHLMLAALETFYRKGIARTSLNEIAQAAGVTRGALYWHFKNKEDLFDALFQRICDDIENCIAQDAADAEGGSWTVFRHTLLHFFERLQSNDIHYKFHNILFLKCEHTEQNAAVIAIARKHQAIWREKITAVLTEAVENQDLADDLDKETAVIFIKSTLDGLIWRWFSSGESFDLGKTAPRIIGIMMDNLENHPCLRRK | binds |

Target: the molecule itself
Assay: SEC; elution of purified point mutants compared with WT MtrR (Supplementary Figure S4); S200 column named in the purification

| Protein | stoichiometry N |
| --- | --- |
| MtrR(W49F) (natural protein, Neisseria gonorrhoeae, MtrR of Neisseria gonorrhoeae, point mutant; Made by site-directed mutagenesis of the mtrR-pMCSG7 construct; source: expressed from the pMCSG7 vector, purified (Ni-NTA, TEV cleavage, Ni-NTA, S200 size exclusion); not shown: His6, N-terminal, cleaved) MRKTKTEALKTKEHLMLAALETFYRKGIARTSLNEIAQAAGVTRGALYFHFKNKEDLFDALFQRICDDIENCIAQDAADAEGGSWTVFRHTLLHFFERLQSNDIHYKFHNILFLKCEHTEQNAAVIAIARKHQAIWREKITAVLTEAVENQDLADDLDKETAVIFIKSTLDGLIWRWFSSGESFDLGKTAPRIIGIMMDNLENHPCLRRK | 2 |
| MtrR(Y48F) (natural protein, Neisseria gonorrhoeae, MtrR of Neisseria gonorrhoeae, point mutant; Made by site-directed mutagenesis of the mtrR-pMCSG7 construct; source: expressed from the pMCSG7 vector, purified (Ni-NTA, TEV cleavage, Ni-NTA, S200 size exclusion); not shown: His6, N-terminal, cleaved) MRKTKTEALKTKEHLMLAALETFYRKGIARTSLNEIAQAAGVTRGALFWHFKNKEDLFDALFQRICDDIENCIAQDAADAEGGSWTVFRHTLLHFFERLQSNDIHYKFHNILFLKCEHTEQNAAVIAIARKHQAIWREKITAVLTEAVENQDLADDLDKETAVIFIKSTLDGLIWRWFSSGESFDLGKTAPRIIGIMMDNLENHPCLRRK | 2 |
| MtrR(W49A) (natural protein, Neisseria gonorrhoeae, MtrR of Neisseria gonorrhoeae, point mutant; Made by site-directed mutagenesis of the mtrR-pMCSG7 construct; source: expressed from the pMCSG7 vector, purified (Ni-NTA, TEV cleavage, Ni-NTA, S200 size exclusion); not shown: His6, N-terminal, cleaved) MRKTKTEALKTKEHLMLAALETFYRKGIARTSLNEIAQAAGVTRGALYAHFKNKEDLFDALFQRICDDIENCIAQDAADAEGGSWTVFRHTLLHFFERLQSNDIHYKFHNILFLKCEHTEQNAAVIAIARKHQAIWREKITAVLTEAVENQDLADDLDKETAVIFIKSTLDGLIWRWFSSGESFDLGKTAPRIIGIMMDNLENHPCLRRK | 2 |
| MtrR(R44A) (natural protein, Neisseria gonorrhoeae, MtrR of Neisseria gonorrhoeae, point mutant; Made by site-directed mutagenesis of the mtrR-pMCSG7 construct; source: expressed from the pMCSG7 vector, purified (Ni-NTA, TEV cleavage, Ni-NTA, S200 size exclusion); not shown: His6, N-terminal, cleaved) MRKTKTEALKTKEHLMLAALETFYRKGIARTSLNEIAQAAGVTAGALYWHFKNKEDLFDALFQRICDDIENCIAQDAADAEGGSWTVFRHTLLHFFERLQSNDIHYKFHNILFLKCEHTEQNAAVIAIARKHQAIWREKITAVLTEAVENQDLADDLDKETAVIFIKSTLDGLIWRWFSSGESFDLGKTAPRIIGIMMDNLENHPCLRRK | 2 |
| MtrR(T11A) (natural protein, Neisseria gonorrhoeae, MtrR of Neisseria gonorrhoeae, point mutant; Made by site-directed mutagenesis of the mtrR-pMCSG7 construct; source: expressed from the pMCSG7 vector, purified (Ni-NTA, TEV cleavage, Ni-NTA, S200 size exclusion); not shown: His6, N-terminal, cleaved) MRKTKTEALKAKEHLMLAALETFYRKGIARTSLNEIAQAAGVTRGALYWHFKNKEDLFDALFQRICDDIENCIAQDAADAEGGSWTVFRHTLLHFFERLQSNDIHYKFHNILFLKCEHTEQNAAVIAIARKHQAIWREKITAVLTEAVENQDLADDLDKETAVIFIKSTLDGLIWRWFSSGESFDLGKTAPRIIGIMMDNLENHPCLRRK | 2 |
| MtrR(T43A) (natural protein, Neisseria gonorrhoeae, MtrR of Neisseria gonorrhoeae, point mutant; Made by site-directed mutagenesis of the mtrR-pMCSG7 construct; source: expressed from the pMCSG7 vector, purified (Ni-NTA, TEV cleavage, Ni-NTA, S200 size exclusion); not shown: His6, N-terminal, cleaved) MRKTKTEALKTKEHLMLAALETFYRKGIARTSLNEIAQAAGVARGALYWHFKNKEDLFDALFQRICDDIENCIAQDAADAEGGSWTVFRHTLLHFFERLQSNDIHYKFHNILFLKCEHTEQNAAVIAIARKHQAIWREKITAVLTEAVENQDLADDLDKETAVIFIKSTLDGLIWRWFSSGESFDLGKTAPRIIGIMMDNLENHPCLRRK | 2 |
| MtrR wild type (natural protein, MtrR, TetR-family transcriptional repressor of Neisseria gonorrhoeae, product of the mtrR gene; also called WT MtrR; MtrR WT; source: expressed from the pMCSG7 vector, purified (Ni-NTA, TEV cleavage, Ni-NTA, S200 size exclusion); not shown: His6, N-terminal, cleaved) MRKTKTEALKTKEHLMLAALETFYRKGIARTSLNEIAQAAGVTRGALYWHFKNKEDLFDALFQRICDDIENCIAQDAADAEGGSWTVFRHTLLHFFERLQSNDIHYKFHNILFLKCEHTEQNAAVIAIARKHQAIWREKITAVLTEAVENQDLADDLDKETAVIFIKSTLDGLIWRWFSSGESFDLGKTAPRIIGIMMDNLENHPCLRRK | 2 |
| MtrR(H50A) (natural protein, Neisseria gonorrhoeae, MtrR of Neisseria gonorrhoeae, point mutant; Made by site-directed mutagenesis of the mtrR-pMCSG7 construct; source: expressed from the pMCSG7 vector, purified (Ni-NTA, TEV cleavage, Ni-NTA, S200 size exclusion); not shown: His6, N-terminal, cleaved) MRKTKTEALKTKEHLMLAALETFYRKGIARTSLNEIAQAAGVTRGALYWAFKNKEDLFDALFQRICDDIENCIAQDAADAEGGSWTVFRHTLLHFFERLQSNDIHYKFHNILFLKCEHTEQNAAVIAIARKHQAIWREKITAVLTEAVENQDLADDLDKETAVIFIKSTLDGLIWRWFSSGESFDLGKTAPRIIGIMMDNLENHPCLRRK | 2 |
| MtrR(G45A) (natural protein, Neisseria gonorrhoeae, MtrR of Neisseria gonorrhoeae, point mutant; Made by site-directed mutagenesis of the mtrR-pMCSG7 construct; source: expressed from the pMCSG7 vector, purified (Ni-NTA, TEV cleavage, Ni-NTA, S200 size exclusion); not shown: His6, N-terminal, cleaved) MRKTKTEALKTKEHLMLAALETFYRKGIARTSLNEIAQAAGVTRAALYWHFKNKEDLFDALFQRICDDIENCIAQDAADAEGGSWTVFRHTLLHFFERLQSNDIHYKFHNILFLKCEHTEQNAAVIAIARKHQAIWREKITAVLTEAVENQDLADDLDKETAVIFIKSTLDGLIWRWFSSGESFDLGKTAPRIIGIMMDNLENHPCLRRK | 2 |
| MtrR(T43S) (natural protein, Neisseria gonorrhoeae, MtrR of Neisseria gonorrhoeae, point mutant; Made by site-directed mutagenesis of the mtrR-pMCSG7 construct; source: expressed from the pMCSG7 vector, purified (Ni-NTA, TEV cleavage, Ni-NTA, S200 size exclusion); not shown: His6, N-terminal, cleaved) MRKTKTEALKTKEHLMLAALETFYRKGIARTSLNEIAQAAGVSRGALYWHFKNKEDLFDALFQRICDDIENCIAQDAADAEGGSWTVFRHTLLHFFERLQSNDIHYKFHNILFLKCEHTEQNAAVIAIARKHQAIWREKITAVLTEAVENQDLADDLDKETAVIFIKSTLDGLIWRWFSSGESFDLGKTAPRIIGIMMDNLENHPCLRRK | 2 |
